Data on 3 molecules can be found in patent publication US20030149244A1 (Genentech, published 2003).

For assay [1], the target named is T1, human IgE (human, UniProt P01854 1-546, FITC-, biotin- or 125I-labelled in some assays). As to the kind of experiment: soluble receptor ELISA, ratio of 50% inhibition concentrations. In general terms: An ELISA detects its analyte on a solid surface through an enzyme-linked reagent.
Assay [2] has as its target T1, human IgE. The assay is described as above. This is another data set of the same source.
Assay [3] concerns the target T1, human IgE. The assay is described as follows: FACS, blocking of FITC-IgE binding to FcεRII (CD23) on IM9 cells. On the technique in general: Flow cytometry measures light scatter and fluorescence of single cells or particles in a stream.
Assay [4] has as its target membrane IgE on U266B1 cells (human, UniProt P01854 1-546). The assay is described as follows: FACS on membrane IgE+ U266B1 cells.

T1 sequence (P01854 whole entry): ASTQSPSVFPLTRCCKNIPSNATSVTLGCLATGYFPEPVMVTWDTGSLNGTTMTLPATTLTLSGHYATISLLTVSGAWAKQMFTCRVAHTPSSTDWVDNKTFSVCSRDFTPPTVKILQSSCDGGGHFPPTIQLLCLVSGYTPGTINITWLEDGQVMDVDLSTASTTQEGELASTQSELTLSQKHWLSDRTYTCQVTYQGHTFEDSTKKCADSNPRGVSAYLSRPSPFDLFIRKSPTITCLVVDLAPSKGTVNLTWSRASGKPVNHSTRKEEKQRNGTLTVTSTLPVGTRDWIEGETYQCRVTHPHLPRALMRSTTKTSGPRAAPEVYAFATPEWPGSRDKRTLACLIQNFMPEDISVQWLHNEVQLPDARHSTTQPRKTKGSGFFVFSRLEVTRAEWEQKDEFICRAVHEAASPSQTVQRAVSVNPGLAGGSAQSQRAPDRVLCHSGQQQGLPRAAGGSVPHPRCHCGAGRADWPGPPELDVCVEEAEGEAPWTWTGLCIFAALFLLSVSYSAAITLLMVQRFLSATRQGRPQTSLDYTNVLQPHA
Chain of membrane IgE on U266B1 cells (P01854 whole entry, one chain of several): as the sequence (P01854 whole entry) above

B1: MaE11 (antibody, mouse IgG1, V domains shown)
VH: DVQLQESGPGLVKPSQSLSLACSVTGYSITSGYSWNWIRQFPGNKLEWMGSITYDGSSNYNPSLKNRISVTRDTSQNQFFLKLNSATAEDTATYYCARGSHYFGHWHFAVWGAGTTVTVSS
VL: DIQLTQSPASLAVSLGQRATISCKASQSVDYDGDSYMNWYQQKPGQPPILLIYAASYLGSEIPARFSGSGSGTDFTLNIHPVEEEDAATFYCQQSHEDPYTFGAGTKLEIK
notes: murine IgG1; also called murine MaE11; MeE11
As for B1, in assay [1], the “ratio Variant X / IgG1-2” value was found to be 0.06 and the “ratio Variant X / MaE11” value is 1. Besides, in assay [2], the “ratio F(ab)-X / F(ab)-2” value turned out to be 0.03 and the “ratio F(ab)-X / MaE11” value is 1.

B2: MaE13 (antibody, V domains shown)
VH: DVQLQESGPGLVKPSQSLSLTCTVTGYTITSDNAWNWIRQFPGNKLEWMGYINHSGTTSYNPSLKSRISITRDTSKNQFFLQLNSVTTEDTATYYCAWVVAYAMDYWGQGTSVTVSS
VL: DIVMTQSQKFMSTSVGDRVSVTCKASQNVSSNVAWYQQKPGQSPKALIYSASYRYSGVPDRFTGSGSGTDFTLTISNVQSEDLAEYFCQQYYTYPLYTFGGGTKLEIK
On to B2, for which the values for the EC50 in assay [3] and in assay [4] were 0.7 µg/mL and 1 µg/mL, respectively.

B3: MaE15 (antibody, V domains shown)
VH: DVQHQESEPDLVKPSQSLSLTCTVTGYSITSGYNRHWIRQFPGNKLEWMGYIHYSGSTNYNPSLKRRISITRDTSKNQFFLQLNSVTTEDTATYYCARGSIYYYGSRYRYFDVWGAGTTVTVSS
VL: DIQLTQSPASLAVSLGQRATISCKASQSVDYDGDSYMNWYQQKPGQPPKLLIYAASNLESGIPARFSGSGSGTDFTLNIHPVEEEDAATYYCQQSNEDPFTFGAGT
Take B3: the half-maximal effective concentration (EC50) was determined as 0.6 µg/mL in assay [3] and 6 µg/mL in assay [4].

The EC50 is the concentration needed to bring the measured effect to its halfway point.
